Data: US20210070833A1 (GI INNOVATION, published 2021)

T1: mouse IgE (mouse, UniProt P06336 1-421)
T1 heavy (looked up): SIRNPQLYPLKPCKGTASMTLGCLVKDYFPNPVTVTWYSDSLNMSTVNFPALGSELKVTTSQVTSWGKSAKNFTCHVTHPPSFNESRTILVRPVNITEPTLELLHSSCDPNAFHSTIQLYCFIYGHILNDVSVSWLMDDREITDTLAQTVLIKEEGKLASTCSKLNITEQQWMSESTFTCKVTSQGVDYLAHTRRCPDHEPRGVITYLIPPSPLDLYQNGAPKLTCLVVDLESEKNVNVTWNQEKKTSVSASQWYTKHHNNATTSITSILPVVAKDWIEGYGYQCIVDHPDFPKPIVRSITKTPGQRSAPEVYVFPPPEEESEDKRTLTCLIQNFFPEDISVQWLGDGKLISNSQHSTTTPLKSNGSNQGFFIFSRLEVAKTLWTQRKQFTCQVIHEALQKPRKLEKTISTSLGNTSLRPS

T2: human IgE (human, UniProt P01854-1 1-428)
T2 heavy (looked up): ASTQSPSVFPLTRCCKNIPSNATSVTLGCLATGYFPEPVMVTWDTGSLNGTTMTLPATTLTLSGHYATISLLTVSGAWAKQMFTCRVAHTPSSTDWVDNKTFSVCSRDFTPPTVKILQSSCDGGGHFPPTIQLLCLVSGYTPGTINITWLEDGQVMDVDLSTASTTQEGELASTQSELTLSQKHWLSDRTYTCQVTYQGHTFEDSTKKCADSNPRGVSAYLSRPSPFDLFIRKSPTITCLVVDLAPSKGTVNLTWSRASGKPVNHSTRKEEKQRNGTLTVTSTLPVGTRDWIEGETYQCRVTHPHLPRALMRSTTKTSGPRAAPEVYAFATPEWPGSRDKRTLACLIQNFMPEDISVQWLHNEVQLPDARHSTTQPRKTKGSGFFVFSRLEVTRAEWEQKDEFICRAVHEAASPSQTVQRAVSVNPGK

T3: FcγRI
T3 construct: not in the MOLECULES list; also called IgG receptor FcγRI; Fc gamma receptor I
T3 chain: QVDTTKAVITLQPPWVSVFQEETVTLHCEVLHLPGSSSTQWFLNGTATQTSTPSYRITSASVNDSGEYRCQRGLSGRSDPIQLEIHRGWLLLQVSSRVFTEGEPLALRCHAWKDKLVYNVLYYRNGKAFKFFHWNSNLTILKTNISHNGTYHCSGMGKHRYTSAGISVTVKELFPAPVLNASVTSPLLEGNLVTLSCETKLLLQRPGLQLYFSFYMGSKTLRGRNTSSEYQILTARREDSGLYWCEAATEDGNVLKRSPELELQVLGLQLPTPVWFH


Key:
mouse IgE = target: T1, mouse IgE; experiment: cell-based or functional assay
human IgE = target: T2, human IgE; experiment: cell-based or functional assay
FcγRI = target: T3, FcγRI; experiment: BLI (Octet RED384), FcγRI immobilised on AR2G biosensor, IgETRAP 0.25-4 µM in solution
Method: FcγRI, FcγRIIA, FcγRIIB, FcγRIIIA, and FcγRIIIB recombinant proteins (R & D Systems Inc., 5 μg/ml) were immobilized in 300 mM acetate buffer (pH 5) on the activated AR2G biosensor. As a running buffer, PBS containing 0.1% Tween-20 and 1% bovine serum was used. All experiments were carried out at 30° C. with a sample plate shaker at a rate of 1,000 rpm.

IgE = target: T4, IgE; experiment: SPR (ProteOn XPR36), KD against omalizumab as reference; the same paragraph ties 69-fold to FcεRIαECD-Fc2ST
T4 construct: also called immunoglobulin E
Method: The experiments were conducted by identifying zero base using 25 mM NaOH as a regeneration buffer, and then repeating the above steps. Thereafter, a binding curve was identified using a protein binding analyzer (ProteOn XPR36, Bio-Rad Laboratories, Inc., USA).

Binder | mast cell inhibition ratio (β-hexosaminidase release, mouse bone marrow-derived mast cells) at 0.5 ug/mL (mouse IgE) [%] | mast cell inhibition ratio (β-hexosaminidase release, mouse bone marrow-derived mast cells) at 1 ug/mL (mouse IgE) [%] | IC50 of mast cell inhibition (β-hexosaminidase release, human FcεRI-expressing mouse bone marrow-derived mast cells) (human IgE) [µg/mL] | inhibitory ability on mast cell activity, fold against Xolair (human IgE) [fold] | binding result (FcγRI) | fold difference of KD against omalizumab (printed as 'higher') (IgE) [fold]
FcεRIαECD-Fc2 (Fc fusion) VPQKPKVSLNPPWNRIFKGENVTLTCNGNNFFEVSSTKWFHNGSLSEETNSSLNIVNAKFEDSGEYKCQHQQVNESEPVYLEVFSDWLLLQASAEVVMEGQPLFLRCHGWRNWDVYKVIYYKDGEALKYWYENHNISITNATVEDSGTYYCTGKVWQLDYESEPLNITVIKAPREKYWLQRNTGRGGEEKKGSKEKEEQEERETKTPECPSHTQPLGVFLFPPKPKDTLMISRTPEVTCVVVDVSQEDPEVQFNWYVDGVEVHNAKTKPREEQFNSTYRVVSVLTVLHQDWLNGKEYKCKVSNKGLPSSIEKTISKAKGQPREPQVYTLPPSQEEMTKNQVSLTCLVKGFYPSDIAVEWESNGQPENNYKTTPPVLDSDGSFFLYSRLTVDKSRWQEGNVFSCSVMHEALHNHYTQKSLSLSLGK | ~49.4 | ~99.4 |  |  |  | 
FcεRIαECD-Fc2ST (Fc fusion, sialic acid added (co-expressed with α-2,6-sialic acid transferase), also called IgETRAP; FcεRIαECD-Fc2 + a2,6-ST) VPQKPKVSLNPPWNRIFKGENVTLTCNGNNFFEVSSTKWFHNGSLSEETNSSLNIVNAKFEDSGEYKCQHQQVNESEPVYLEVFSDWLLLQASAEVVMEGQPLFLRCHGWRNWDVYKVIYYKDGEALKYWYENHNISITNATVEDSGTYYCTGKVWQLDYESEPLNITVIKAPREKYWLQRNTGRGGEEKKGSKEKEEQEERETKTPECPSHTQPLGVFLFPPKPKDTLMISRTPEVTCVVVDVSQEDPEVQFNWYVDGVEVHNAKTKPREEQFNSTYRVVSVLTVLHQDWLNGKEYKCKVSNKGLPSSIEKTISKAKGQPREPQVYTLPPSQEEMTKNQVSLTCLVKGFYPSDIAVEWESNGQPENNYKTTPPVLDSDGSFFLYSRLTVDKSRWQEGNVFSCSVMHEALHNHYTQKSLSLSLGK |  |  | ~0.0112 | 58 | no binding (tested: 4 µM) | 22 to 69
